Experimental data reported in patent US12679878B2, “CRF2 receptor agonists and their use in therapy” (SANOFI, priority 2020, dated 2026).
Starred links: 1 amine or outer side, 2 acyl side, 3 side chain; linkers in the order of their positions; H or OH if unused. Non-standard residues stand in square brackets, D forms with d. Groups on a side chain read outwards from the residue. No end group written: not given here. *: point of attachment. C18 diacid = O=C(O)CCCCCCCCCCCCCCCCC(=O)*; γGlu = O=C(O)[C@H](CCC(=O)[*:2])N[*:1]; AEEA = NCCOCCOCC(=O)O; Aib = CC(C)(N)C(=O)O

Target: human corticotropin-releasing factor 2α (CRF2 α receptor) (human), Q13324
Sequence (Q13324 20-411): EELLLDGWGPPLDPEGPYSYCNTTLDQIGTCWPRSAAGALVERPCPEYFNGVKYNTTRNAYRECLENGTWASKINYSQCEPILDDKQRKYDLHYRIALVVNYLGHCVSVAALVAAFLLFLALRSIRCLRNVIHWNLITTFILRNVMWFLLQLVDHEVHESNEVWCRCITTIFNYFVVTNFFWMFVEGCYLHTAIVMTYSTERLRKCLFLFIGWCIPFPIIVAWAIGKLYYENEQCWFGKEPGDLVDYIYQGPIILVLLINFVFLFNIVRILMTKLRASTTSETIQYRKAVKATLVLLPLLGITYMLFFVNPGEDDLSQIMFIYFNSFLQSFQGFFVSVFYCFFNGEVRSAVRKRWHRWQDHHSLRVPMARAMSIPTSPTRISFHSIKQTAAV
Assay: cell-based or functional assay

Binder	EC50 [nM], 0% HSA [nM]	EC50 [nM], 0.1% HSA [nM]
IVLSLD[dV]PIKLK([AEEA-AEEA-γGlu-C18 diacid])QILLEQERQK[Aib]QRQQAEKNKQILAQV-NH2 (N-terminus assumed; SMILES CC[C@H](C)[C@H](N)C(=O)N[C@H](C(=O)N[C@@H](CC(C)C)C(=O)N[C@@H](CO)C(=O)N[C@@H](CC(C)C)C(=O)N[C@@H](CC(=O)O)C(=O)N[C@@H](C(=O)N1CCC[C@H]1C(=O)N[C@H](C(=O)N[C@@H](CCCCN)C(=O)N[C@@H](CC(C)C)C(=O)N[C@@H](CCCCNC(=O)COCCOCCNC(=O)COCCOCCNC(=O)CC[C@H](NC(=O)CCCCCCCCCCCCCCCCC(=O)O)C(=O)O)C(=O)N[C@@H](CCC(N)=O)C(=O)N[C@H](C(=O)N[C@@H](CC(C)C)C(=O)N[C@@H](CC(C)C)C(=O)N[C@@H](CCC(=O)O)C(=O)N[C@@H](CCC(N)=O)C(=O)N[C@@H](CCC(=O)O)C(=O)N[C@@H](CCCNC(=N)N)C(=O)N[C@@H](CCC(N)=O)C(=O)N[C@@H](CCCCN)C(=O)NC(C)(C)C(=O)N[C@@H](CCC(N)=O)C(=O)N[C@@H](CCCNC(=N)N)C(=O)N[C@@H](CCC(N)=O)C(=O)N[C@@H](CCC(N)=O)C(=O)N[C@@H](C)C(=O)N[C@@H](CCC(=O)O)C(=O)N[C@@H](CCCCN)C(=O)N[C@@H](CC(N)=O)C(=O)N[C@@H](CCCCN)C(=O)N[C@@H](CCC(N)=O)C(=O)N[C@H](C(=O)N[C@@H](CC(C)C)C(=O)N[C@@H](C)C(=O)N[C@@H](CCC(N)=O)C(=O)N[C@H](C(N)=O)C(C)C)[C@@H](C)CC)[C@@H](C)CC)[C@@H](C)CC)C(C)C)C(C)C) [SEQ ID NO: 131]	0.11	2.44
IVLSLD[dV]PIKLK([AEEA-AEEA-γGlu-C18 diacid])QILLEQERQK[Aib]QREQAEKNKQILAQV-NH2 (N-terminus assumed; SMILES CC[C@H](C)[C@H](N)C(=O)N[C@H](C(=O)N[C@@H](CC(C)C)C(=O)N[C@@H](CO)C(=O)N[C@@H](CC(C)C)C(=O)N[C@@H](CC(=O)O)C(=O)N[C@@H](C(=O)N1CCC[C@H]1C(=O)N[C@H](C(=O)N[C@@H](CCCCN)C(=O)N[C@@H](CC(C)C)C(=O)N[C@@H](CCCCNC(=O)COCCOCCNC(=O)COCCOCCNC(=O)CC[C@H](NC(=O)CCCCCCCCCCCCCCCCC(=O)O)C(=O)O)C(=O)N[C@@H](CCC(N)=O)C(=O)N[C@H](C(=O)N[C@@H](CC(C)C)C(=O)N[C@@H](CC(C)C)C(=O)N[C@@H](CCC(=O)O)C(=O)N[C@@H](CCC(N)=O)C(=O)N[C@@H](CCC(=O)O)C(=O)N[C@@H](CCCNC(=N)N)C(=O)N[C@@H](CCC(N)=O)C(=O)N[C@@H](CCCCN)C(=O)NC(C)(C)C(=O)N[C@@H](CCC(N)=O)C(=O)N[C@@H](CCCNC(=N)N)C(=O)N[C@@H](CCC(=O)O)C(=O)N[C@@H](CCC(N)=O)C(=O)N[C@@H](C)C(=O)N[C@@H](CCC(=O)O)C(=O)N[C@@H](CCCCN)C(=O)N[C@@H](CC(N)=O)C(=O)N[C@@H](CCCCN)C(=O)N[C@@H](CCC(N)=O)C(=O)N[C@H](C(=O)N[C@@H](CC(C)C)C(=O)N[C@@H](C)C(=O)N[C@@H](CCC(N)=O)C(=O)N[C@H](C(N)=O)C(C)C)[C@@H](C)CC)[C@@H](C)CC)[C@@H](C)CC)C(C)C)C(C)C) [SEQ ID NO: 129]	0.15	3.02
IVLSLD[dV]PIKLK([AEEA-AEEA-γGlu-C18 diacid])QILLEQERQK[Aib]QREQAEKNKQILERV-NH2 (N-terminus assumed; SMILES CC[C@H](C)[C@H](N)C(=O)N[C@H](C(=O)N[C@@H](CC(C)C)C(=O)N[C@@H](CO)C(=O)N[C@@H](CC(C)C)C(=O)N[C@@H](CC(=O)O)C(=O)N[C@@H](C(=O)N1CCC[C@H]1C(=O)N[C@H](C(=O)N[C@@H](CCCCN)C(=O)N[C@@H](CC(C)C)C(=O)N[C@@H](CCCCNC(=O)COCCOCCNC(=O)COCCOCCNC(=O)CC[C@H](NC(=O)CCCCCCCCCCCCCCCCC(=O)O)C(=O)O)C(=O)N[C@@H](CCC(N)=O)C(=O)N[C@H](C(=O)N[C@@H](CC(C)C)C(=O)N[C@@H](CC(C)C)C(=O)N[C@@H](CCC(=O)O)C(=O)N[C@@H](CCC(N)=O)C(=O)N[C@@H](CCC(=O)O)C(=O)N[C@@H](CCCNC(=N)N)C(=O)N[C@@H](CCC(N)=O)C(=O)N[C@@H](CCCCN)C(=O)NC(C)(C)C(=O)N[C@@H](CCC(N)=O)C(=O)N[C@@H](CCCNC(=N)N)C(=O)N[C@@H](CCC(=O)O)C(=O)N[C@@H](CCC(N)=O)C(=O)N[C@@H](C)C(=O)N[C@@H](CCC(=O)O)C(=O)N[C@@H](CCCCN)C(=O)N[C@@H](CC(N)=O)C(=O)N[C@@H](CCCCN)C(=O)N[C@@H](CCC(N)=O)C(=O)N[C@H](C(=O)N[C@@H](CC(C)C)C(=O)N[C@@H](CCC(=O)O)C(=O)N[C@@H](CCCNC(=N)N)C(=O)N[C@H](C(N)=O)C(C)C)[C@@H](C)CC)[C@@H](C)CC)[C@@H](C)CC)C(C)C)C(C)C) [SEQ ID NO: 132]	0.38	8.76
IVLSLD[dV]PIKLK([AEEA-AEEA-γGlu-C18 diacid])QILLKQERQK[Aib]QREQAEKNKQILAQV-NH2 (N-terminus assumed; SMILES CC[C@H](C)[C@H](N)C(=O)N[C@H](C(=O)N[C@@H](CC(C)C)C(=O)N[C@@H](CO)C(=O)N[C@@H](CC(C)C)C(=O)N[C@@H](CC(=O)O)C(=O)N[C@@H](C(=O)N1CCC[C@H]1C(=O)N[C@H](C(=O)N[C@@H](CCCCN)C(=O)N[C@@H](CC(C)C)C(=O)N[C@@H](CCCCNC(=O)COCCOCCNC(=O)COCCOCCNC(=O)CC[C@H](NC(=O)CCCCCCCCCCCCCCCCC(=O)O)C(=O)O)C(=O)N[C@@H](CCC(N)=O)C(=O)N[C@H](C(=O)N[C@@H](CC(C)C)C(=O)N[C@@H](CC(C)C)C(=O)N[C@@H](CCCCN)C(=O)N[C@@H](CCC(N)=O)C(=O)N[C@@H](CCC(=O)O)C(=O)N[C@@H](CCCNC(=N)N)C(=O)N[C@@H](CCC(N)=O)C(=O)N[C@@H](CCCCN)C(=O)NC(C)(C)C(=O)N[C@@H](CCC(N)=O)C(=O)N[C@@H](CCCNC(=N)N)C(=O)N[C@@H](CCC(=O)O)C(=O)N[C@@H](CCC(N)=O)C(=O)N[C@@H](C)C(=O)N[C@@H](CCC(=O)O)C(=O)N[C@@H](CCCCN)C(=O)N[C@@H](CC(N)=O)C(=O)N[C@@H](CCCCN)C(=O)N[C@@H](CCC(N)=O)C(=O)N[C@H](C(=O)N[C@@H](CC(C)C)C(=O)N[C@@H](C)C(=O)N[C@@H](CCC(N)=O)C(=O)N[C@H](C(N)=O)C(C)C)[C@@H](C)CC)[C@@H](C)CC)[C@@H](C)CC)C(C)C)C(C)C) [SEQ ID NO: 130]	0.05	2.11
FTLSLDVPTKIK([AEEA-AEEA-γGlu-C18 diacid])QILFKQQKQKKERQQAEKNKQLLEQI-NH2 (N-terminus assumed; SMILES CC[C@H](C)[C@H](NC(=O)[C@H](CCC(N)=O)NC(=O)[C@H](CCC(=O)O)NC(=O)[C@H](CC(C)C)NC(=O)[C@H](CC(C)C)NC(=O)[C@H](CCC(N)=O)NC(=O)[C@H](CCCCN)NC(=O)[C@H](CC(N)=O)NC(=O)[C@H](CCCCN)NC(=O)[C@H](CCC(=O)O)NC(=O)[C@H](C)NC(=O)[C@H](CCC(N)=O)NC(=O)[C@H](CCC(N)=O)NC(=O)[C@H](CCCNC(=N)N)NC(=O)[C@H](CCC(=O)O)NC(=O)[C@H](CCCCN)NC(=O)[C@H](CCCCN)NC(=O)[C@H](CCC(N)=O)NC(=O)[C@H](CCCCN)NC(=O)[C@H](CCC(N)=O)NC(=O)[C@H](CCC(N)=O)NC(=O)[C@H](CCCCN)NC(=O)[C@H](Cc1ccccc1)NC(=O)[C@H](CC(C)C)NC(=O)[C@@H](NC(=O)[C@H](CCC(N)=O)NC(=O)[C@H](CCCCNC(=O)COCCOCCNC(=O)COCCOCCNC(=O)CC[C@H](NC(=O)CCCCCCCCCCCCCCCCC(=O)O)C(=O)O)NC(=O)[C@@H](NC(=O)[C@H](CCCCN)NC(=O)[C@@H](NC(=O)[C@@H]1CCCN1C(=O)[C@@H](NC(=O)[C@H](CC(=O)O)NC(=O)[C@H](CC(C)C)NC(=O)[C@H](CO)NC(=O)[C@H](CC(C)C)NC(=O)[C@@H](NC(=O)[C@@H](N)Cc1ccccc1)[C@@H](C)O)C(C)C)[C@@H](C)O)[C@@H](C)CC)[C@@H](C)CC)C(N)=O) [SEQ ID NO: 13]	0.98	64.1
IVLSLD[dV]PIKLK([AEEA-AEEA-γGlu-C18 diacid])QILLKQARQK[Aib]QREQAEKNKRILERV-NH2 (N-terminus assumed; SMILES CC[C@H](C)[C@H](N)C(=O)N[C@H](C(=O)N[C@@H](CC(C)C)C(=O)N[C@@H](CO)C(=O)N[C@@H](CC(C)C)C(=O)N[C@@H](CC(=O)O)C(=O)N[C@@H](C(=O)N1CCC[C@H]1C(=O)N[C@H](C(=O)N[C@@H](CCCCN)C(=O)N[C@@H](CC(C)C)C(=O)N[C@@H](CCCCNC(=O)COCCOCCNC(=O)COCCOCCNC(=O)CC[C@H](NC(=O)CCCCCCCCCCCCCCCCC(=O)O)C(=O)O)C(=O)N[C@@H](CCC(N)=O)C(=O)N[C@H](C(=O)N[C@@H](CC(C)C)C(=O)N[C@@H](CC(C)C)C(=O)N[C@@H](CCCCN)C(=O)N[C@@H](CCC(N)=O)C(=O)N[C@@H](C)C(=O)N[C@@H](CCCNC(=N)N)C(=O)N[C@@H](CCC(N)=O)C(=O)N[C@@H](CCCCN)C(=O)NC(C)(C)C(=O)N[C@@H](CCC(N)=O)C(=O)N[C@@H](CCCNC(=N)N)C(=O)N[C@@H](CCC(=O)O)C(=O)N[C@@H](CCC(N)=O)C(=O)N[C@@H](C)C(=O)N[C@@H](CCC(=O)O)C(=O)N[C@@H](CCCCN)C(=O)N[C@@H](CC(N)=O)C(=O)N[C@@H](CCCCN)C(=O)N[C@@H](CCCNC(=N)N)C(=O)N[C@H](C(=O)N[C@@H](CC(C)C)C(=O)N[C@@H](CCC(=O)O)C(=O)N[C@@H](CCCNC(=N)N)C(=O)N[C@H](C(N)=O)C(C)C)[C@@H](C)CC)[C@@H](C)CC)[C@@H](C)CC)C(C)C)C(C)C) [SEQ ID NO: 128]	0.64	20.1
